B1: ADI-19482 (antibody, V domains shown)
VH: QVQLQQWGAGLLKPSETLSLTCGAFHGSFSGYYWSWIRQPPGKGLEWIGEVTHSRSTNYNPSLKSRITISVDTSRNQFSLKLNSVTAADTAVYYCARGSGEWYFDIWGRGTLVTVSS
VL: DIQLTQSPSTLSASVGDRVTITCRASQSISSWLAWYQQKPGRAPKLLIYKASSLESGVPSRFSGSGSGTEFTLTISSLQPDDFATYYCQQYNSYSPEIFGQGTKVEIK
notes: full-length IgG
B2: ADI-22759 (antibody, V domains shown)
VH: EVQLLESGGGLVKPGGSLRLSCAASGFSFSSYTMNWVRQAPGKGLEWVSSITGGSSYIDYAGSLKGRFTISRDNAKNSLYLQMNSLRVEDTAVYYCARDFPNIAVGGKTLDYWGQGTLVTVSS
VL: QPVLTQPPSVSGAPGQRVTISCTGSSSNIGAGYDVHWFQQLPGTAPKLLIYVNNNRPSGVPDRFSGSKSGTSASLAITGLQAEDEADYYCQSYDRLSAVVFGGGTKVTVL
notes: full-length IgG
B3: ADI-41354 (antibody, V domains shown)
VH: EVQLLESGGGLVQPGGSLRLSCAASGFTFSSYAMSWVRQAPGKGLEWVSGISGSGGTTYYADSVKGRFTISRDNSKNTLYLQMNSLRAEDTAVYYCAKDSPVNINCGGDCDVAYWGQGTLVTVSS
VL: EIVMTQSPSSLSASVGDTVTITCQASQDISYSLNWYQQKPGKAPNLLIFDASHLQTGVPSRFSGGGDGKHFSFTISSLQPEDVATYYCQQYDSLMYTFGQGTKVEIK
notes: IgG1; also called Ab 651
B4: ADI-14368 (antibody, V domains shown)
VH: EVQLVESGGGLVKPGGSLRLSCAASGFTFINAWMSWVRQAPGKGLEWVGRIKSKADGGTTDDAAPVKGRFTISRDDSKNTLYLQMNSLKIEDTAVYYCATDVLPLYNWNLGWNFDLWGRGTLVTVSS
VL: SYVLTQPPSVSVAPGKTARITCGGNNIADKSVHWYQQKPGQAPVLVMYYDTDRPSGIPERFSGFNSGNTATLTISRVEAGDEADYYCQVWDSSSDHVVFGGGTKVTVL
notes: full-length IgG; also called Ab 36
B5: ADI-19480 (antibody, V domains shown)
VH: EVQLVESGGGLVKPGGSLRLSCAASGFTFSAYSMNWVRQAPGKGLEWVSSISSTTNYISYADSVKGRFTISRDNAKNSLYLQMNSLRAEDTAVYYCARDPKYYGLGTYYKDDYWGQGTLVTVSS
VL: NFMLTQPHSVSESPGKTVTISCTRSGGSIASNYVQWYQQRPGSSPTTVIYEDNQRPSGVPDRFSGSIDSSFNSASLTVSGLKTEDEADYYCQSFDNNNRWVFGGGTKLTVL
notes: full-length IgG
B6: ADI-41360 (antibody, V domains shown)
VH: EVQLVESGGGLVQPGGSLRLSCAASGLTFSRYSMNWVRQAPGKGLEWVSYISSTGRRIQYADSVKGRFTISRDDGKNSLYLQMNSLRAEDTAVYYCARDPLNYHDNTAYWSYWGQGTLVTVSS
VL: NFMLTQPHSVSESPGKTVTISCTRSSGSIASNYVQWYQQRPGSAPTTVIYEDNQRPSGVPDRFSGSIDSSSNSASLTISGLKTEDEADYYCQSYDSSNPLVFGGGTKLTVL
notes: IgG1; also called Ab 657
B7: ADI-41355 (antibody, V domains shown)
VH: EVQLVESGGGLVKPGGSLRLSCTASGFTFSDYYMNWIRQAPGKGLEWVSYISGDGNTIYYTDSVKGRFTISRDNAKNSLFLQMNSLRGEDSAVYYCAGPVRGYTYGIFDYWGQGALVTVSS
VL: YYVLTQPPSVSVAPGQAARITCGGNNIGSRSVNWYQQKPGQAPVVVIYGDSVRPSGIPERFSGSNSGNTATLTFSRVEAGDEADYYCQVWETNSDHPVVFGGGTKVTVL
notes: IgG1
B8: ADI-14361 (antibody, V domains shown)
VH: EVQLLESGGGFVQPGGSLRLSCAASGFTFSSYAVNWVRQAPGKGLEWVSLISGSGRTDYTDSVKGRFTISRDNAKNTLFLQMNSLRVEDTAVYYCAKSWGSSGYGYLDYWGQGTLVTVSS
VL: QSGLTQPPSVSGAPGQRVTISCTGSSSNIGPGTDVHWYQHFPGTAPKLLIFGNSNRPSGVPDRFSGSKSGTSASLAITGLQAEDEAYYYCQSYDRTLSASVFGGGTKLTVL
notes: full-length IgG; also called Ab 29
B9: ADI-14338 (antibody, V domains shown)
VH: EVQLVESGGGVVQPGRPLRLSCAASGFTFSTYDLYWVRQAPGKGLDWVAIISPDGNKKYYADSVKGRFTISRDNSKNTLFLHMNSLRAEDTAVYYCARDYGNYFGSGSYYRYFDLWGRGTLVTVSS
VL: DIQLTQSPSSLSASVGDRVTITCRASQSISSHLNWYQQKPGKAPKLLIYASSSLQSGVPSRFSGSGSGTDFTLTISGLQPEDFATYYCQQSYSTPFTFGPGTKVEIK
notes: full-length IgG; also called Ab 6
B10: ADI-25547 (antibody, V domains shown)
VH: EVQLLESGGGLIQPGGSLRLSCAASGFTVSSNYMSWVRQAPGKGLEWVSVIYSGGSTYYADSVKGRFTISRDNSKNTLYLQMNSLRAEDTAVYYCARGGIADAFDIWGQGTMVTVSS
VL: ETTLTQSPSSVSASVGDRVTITCRASQGISSWLAWYQQKPGKAPKLLIYAASSLQSGVPSRFSGSGSGTDFTLTISSLQPEDFATYYCQQANSFPRTFGQGTKLEIK
notes: full-length IgG
B11: ADI-14355 (antibody, V domains shown)
VH: EVQLVESGPTLVKPTQTLTLTCTFSGFSLSTSGVGVGWIRQPPGKALEWLAVIYWDDDKTYSPSLKSRLTITKDTSKNQVVLTMTNMNPVDTATYYCARCPAPVYSYGVDVWGQGTTVTVSS
VL: QSALTQPASVSGSPGQSITISCTATSSDFGGYDYVSWYQQHPGEAPKLMISDVTNRPSGVSNRFSGSKSGNTASLTISGLQAEDEADYYCSSYTSYTTPYVFGTGTKLTVL
notes: full-length IgG; also called Ab 23
B12: ADI-14375 (antibody, V domains shown)
VH: EVQLVESGGGLVQPGGSLRLSCAVSGFTFSNYAVSWVRQAPGKGLEWVSGISGSGGTTYYVDSVKGRFTVSRDNSKNTLFLQLNSLKAEDTAVYYCAKDWGYSGGRPYFDYWGQGTLVTVSS
VL: QSVLTQPPSVSGAPGQRVTISCTASSSNIGPIYDVHWYQQLPGTGPKLLIYGNNNRPSGVPDRFSGSKSGTSASLAITGLQAEDEADYYCQSYDTSLSVVFGGGTKLTVL
notes: full-length IgG; also called Ab 43
B13: ADI-14350 (antibody, V domains shown)
VH: EVQLVESGPGLVKPSETLSLTCTVSGDSVSNNNYYWNWIRQSPGKGLEWIGYIYYSGSTDYNPSLKSRVTISVDTSKNQFSLNLRSVTAADTAIYFCASAPWGMFTILGVVP
VL: QSVLTQPPSVSGAPGQRVTISCTGSSSNIGAGYDVHWYQQLPGTAPKLLIYGSSNRPSGVPDRFSGSRSGTSASLAITGLQAEDEADYYCQSYDGSLGVYVFATGTKVTVL
notes: full-length IgG; also called Ab 18
B14: ADI-25497 (antibody, V domains shown)
VH: EVQLLESGGGLVQPGGSLRLSCAASGFTFSSYWMSWVRQAPGKGLEWVANIKQDGSEKYYVDSVKGRFTISRDNAKNSLYLQMNSLRAEDTAVYYCARDGLLQYDFWSGYYDYWGQGTLVTVSS
VL: EIVLTQSPSSLSASVGDRVTITCRASQGISSWLAWYQQKPEKAPKSLIYAASSLQSGVPSRFSGSGSGTDFTLTISSLQPEDFATYYCQQYNSYPFTFGPGTKVDIK
notes: full-length IgG
B15: ADI-14383 (antibody, V domains shown)
VH: QITLKESGPTLVKPTQTLTLTCTFSGFSLSTSGVGVGWIRQPPGKALEWLALIYWDEDKRYSPSLKTRLTITKDTSRNQVKLTMTNMDPVDTATYYCAHQYYDILTGYPSPGAFDIWGQGTTVTVSS
VL: QPVLTQPASVSGSPGQSITISCTGTSSDVVSYNLVSWFQQHPGKAPKLMIYEVTRRPSGVSNRFSGSKSGNTASLTISGLQAEDEADYYCCAYTGTPVVFGGGTKLTVL
notes: full-length IgG; also called Ab 51
B16: ADI-14341 (antibody, V domains shown)
VH: QVQLVQSGGGLVQPGGSLRLSCAGSGFTFSDYEMNWVRQAPGKGLEWLSYISSSGSIIYYADSVKGRFTISRDNAKNSLYLQMNSLRAEDTGLYYCARANHRHYYGMDVWGQGTTVTVSS
VL: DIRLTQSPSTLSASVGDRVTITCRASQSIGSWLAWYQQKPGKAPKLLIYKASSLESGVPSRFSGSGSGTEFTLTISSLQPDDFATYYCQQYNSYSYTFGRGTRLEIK
notes: full-length IgG; also called Ab 9
B17: ADI-14371 (antibody, V domains shown)
VH: EVQLVESGGGLVQPGGSLRLSCAASGFTFSNYAMTWVRQAPGKGLEWLSSISGSGGSTYYADSVKGRFTISRDNSRNTLYVQMNSLRVEDTAFYYCAKAFYEYGAGSPGDYWGQGTLVTVSS
VL: DIQLTQSPSSLSASVGDRVTITCRASQSIGTNLNWYQQKPGKAPKFLIYAASSLQRGVPSRFSGSGSGSEFTLTISSLQPEDFATYYCQQSYSTLPITFGQGTKLEIK
notes: full-length IgG; also called Ab 39
B18: ADI-14365 (antibody, V domains shown)
VH: QVQLVQSGAEVKKPGASVKVSCKVSGYTLTKLSMHWVRQAPGKGLEWMGFFDPEDGDTLYAQKFQGRVTMTEDTSSDTPYMELRSLRSEDTAVYYCASPAAAGQFDYWGQGTLVTVSS
VL: DIVMTQSPSSLSASVGDRVTITCRASQFISSYLHWYQQKTGKAPKLLIYAASSLQSGVPSRFSGSGSGTDFTLTISSLQPEDFATYYCQQSYNTPRTFGQGTKLEIK
notes: full-length IgG; also called Ab 33

Tests used:
[1] = molecular target: T1, RSV postfusion F (postF), subtype A (respiratory syncytial virus subtype A, UniProt P03420 26-513); assay: BLI, IgG
T1 construct: also called Postfusion subtype A; F deltaFP

[2] = molecular target: T2, RSV postfusion F (postF), subtype B (respiratory syncytial virus subtype B); assay: BLI, IgG
T2 construct: also called Postfusion subtype B

[3] = molecular target: T3, RSV prefusion F (preF), subtype B (respiratory syncytial virus subtype B); assay: BLI, IgG
T3 construct: also called Prefusion subtype B

[4] = molecular target: RSV F on RSV subtype A virus (mKate-RSV A2) (respiratory syncytial virus A2, UniProt P03420 26-574); assay: cell-based or functional assay
[5] = molecular target: RSV F on RSV subtype B virus (mKate-RSV B 18537) (respiratory syncytial virus B 18537, UniProt P13843 26-574); assay: cell-based or functional assay
[6] = molecular target: RSV prefusion F (preF), DS-Cav1 (respiratory syncytial virus, UniProt P03420 26-513); assay: BLI, IgG on sensor, 100 nM antigen
[7] = molecular target: RSV postfusion F (postF), F deltaFP (respiratory syncytial virus, UniProt P03420 26-513); assay: BLI, IgG on sensor, 100 nM antigen
[8] = molecular target: RSV fusion glycoprotein (RSV F) on RSV-A2 virus (respiratory syncytial virus, UniProt P03420 26-574); assay: cell-based or functional assay

| Binder | Kd [1] [nM] | Kd [2] [nM] | Kd [3] [nM] | Neut IC50 subtype A [4] [µg/mL] | Neut IC50 subtype B [5] [µg/mL] | Kd [6] [nM] | Kd [7] [nM] | Neutralization IC50 (RSV subtype A) [8] [µg/mL] |
| --- | --- | --- | --- | --- | --- | --- | --- | --- |
| B1 | 1.71 | 0.555 | 1.89 | 1.49 | 2.24 |  |  |  |
| B2 | 25.3 | 10.1 | 0.353 | 0.08 | 0.2 |  |  |  |
| B3 |  |  |  |  |  | 0.771 | 0.429 | > 25 |
| B4 | 24.5 | 17.7 | 1.21 |  | 1.1 |  |  |  |
| B5 | 0.129 | 0.119 | 0.383 |  | 6.25 |  |  |  |
| B6 |  |  |  |  |  | 2.46 | 0.358 | > 25 |
| B7 |  |  |  |  |  | 3.84 | 1.18 | > 25 |
| B8 | 0.437 | 0.293 | 52.8 |  |  |  |  |  |
| B9 | 5.98 | 3.14 | 7.04 |  | 10.2 |  |  |  |
| B10 | 21.5 | 23.1 | 20.3 |  |  |  |  |  |
| B11 | 0.48 | 0.37 | 1.25 |  | 4.72 |  |  |  |
| B12 | 0.477 | 3.31 | 3.21 |  |  |  |  |  |
| B13 | 0.264 | 0.148 | 0.574 |  | 4.82 |  |  |  |
| B14 | 18.4 | 14.8 | 14.1 |  |  |  |  |  |
| B15 | 0.434 | 0.251 | 1.75 |  |  |  |  |  |
| B16 | 0.713 | 0.612 |  |  | 17.5 |  |  |  |
| B17 | 1.23 | 1.07 | 8.43 |  |  |  |  |  |
| B18 | 10.3 | 22.3 | 0.962 | 0.8 | 0.49 |  |  |  |

From patent publication US20260258115A1 (MAPP BIOPHARMACEUTICAL, published 2026)
